US20230235004A1 (published 2023)
Where a chain is given by its changes, count along the chain named. Values belong to the binder of their own block, whether it stands above or below them.

Assays:
[1] = target: T1, human MAdCAM expressed on cells (human, UniProt Q13477 19-382); test: cell binding
T1 construct: whole, on cells
T1 sequence (looked up): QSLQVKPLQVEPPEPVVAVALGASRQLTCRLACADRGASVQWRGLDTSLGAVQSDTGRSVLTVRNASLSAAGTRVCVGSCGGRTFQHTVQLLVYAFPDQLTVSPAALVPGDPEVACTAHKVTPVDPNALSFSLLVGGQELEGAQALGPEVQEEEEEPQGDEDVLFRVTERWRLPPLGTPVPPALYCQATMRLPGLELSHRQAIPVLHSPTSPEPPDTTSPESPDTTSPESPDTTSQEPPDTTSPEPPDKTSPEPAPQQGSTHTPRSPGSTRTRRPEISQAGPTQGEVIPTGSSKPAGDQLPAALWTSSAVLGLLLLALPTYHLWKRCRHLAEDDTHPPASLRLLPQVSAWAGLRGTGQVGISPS

[2] = target: T2, mouse MAdCAM expressed on cells (mouse, UniProt Q61826 22-405); test: cell binding
T2 construct: whole, on cells
T2 sequence (looked up): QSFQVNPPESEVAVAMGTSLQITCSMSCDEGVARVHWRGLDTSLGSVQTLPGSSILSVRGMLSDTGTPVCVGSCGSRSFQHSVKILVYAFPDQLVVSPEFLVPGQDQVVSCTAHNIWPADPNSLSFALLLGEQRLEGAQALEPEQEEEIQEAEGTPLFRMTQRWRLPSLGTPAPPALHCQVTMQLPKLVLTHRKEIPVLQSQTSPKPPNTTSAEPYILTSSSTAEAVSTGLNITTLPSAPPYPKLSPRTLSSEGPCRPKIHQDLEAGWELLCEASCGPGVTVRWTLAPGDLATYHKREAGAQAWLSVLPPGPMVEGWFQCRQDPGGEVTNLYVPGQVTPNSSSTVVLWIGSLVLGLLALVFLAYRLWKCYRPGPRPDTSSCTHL

[3] = target: T3, recombinant mouse MAdCAM-1 (mouse, UniProt Q61826 22-364, limits assumed); test: Octet
T3 construct: also called mMAdCAM-1
T3 sequence (looked up): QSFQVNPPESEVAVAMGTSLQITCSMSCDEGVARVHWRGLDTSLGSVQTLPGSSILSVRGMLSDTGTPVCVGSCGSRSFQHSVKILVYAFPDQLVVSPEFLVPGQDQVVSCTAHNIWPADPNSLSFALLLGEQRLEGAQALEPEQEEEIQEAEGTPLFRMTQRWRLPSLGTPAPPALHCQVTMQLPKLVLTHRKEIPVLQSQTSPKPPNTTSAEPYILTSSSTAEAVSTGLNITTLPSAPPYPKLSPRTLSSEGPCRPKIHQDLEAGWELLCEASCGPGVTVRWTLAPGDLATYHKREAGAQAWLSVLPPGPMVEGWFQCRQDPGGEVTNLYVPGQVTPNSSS

human MAdCAM protein = target: T4, human MAdCAM protein (human, UniProt Q13477 19-317, limits assumed); test: Octet
T4 construct: also called soluble monomeric human MAdCAM; recombinant human MAdCAM
T4 sequence (looked up): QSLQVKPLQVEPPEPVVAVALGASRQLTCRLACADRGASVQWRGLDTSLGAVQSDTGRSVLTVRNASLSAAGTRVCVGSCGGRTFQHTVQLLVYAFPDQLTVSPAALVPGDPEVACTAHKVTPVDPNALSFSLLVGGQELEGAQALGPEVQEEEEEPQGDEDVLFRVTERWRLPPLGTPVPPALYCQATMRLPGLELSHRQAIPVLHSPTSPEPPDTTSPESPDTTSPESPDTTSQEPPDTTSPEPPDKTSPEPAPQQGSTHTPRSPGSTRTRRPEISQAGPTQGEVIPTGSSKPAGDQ

B1: MAdCAM Antibody Table 2 clone 8 (antibody, V domains shown)
VH: QVQLVQSGAEVKKPGASVKVSCKASGYTFTGYHIHWVRQAPGQGLEWMGIINPSGGSTIYAQKFQGRVTMTRDTSTSTVYMELSSLRSEDTAVYYCAKDWSSWYLGPFDYWGQGTLVTVSS
VL: DIQMTQSPSSLSASVGDRVTITCRASQNISSSLNWYQQKPGKAPKLLIYAASSLQSGVPSRFSGSGSGTDFTLTISSLQPEDFATYYCQQSYTTPYTFGQGTKVEIK
notes: IgG format
- binding result [1]: binds
- binding result [2]: binds
- binding result [3]: binds

B2: MAdCAM Antibody Table 2 clone 75 (antibody, V domains shown)
VH: EVQLLESGGGLVQPGGSLRLSCAASGFTFSDFWMHWVRQAPGKGLEWISYISGDSGYTNYADSVKGRFTISRDNSKNTLYLQMNSLRAEDTAVYYCARDRPYYYYMDVWGKGTTVTVSS
VL: B1 VL with N28S, I29V, S31R, N34A, S91Y, Y92K, T93S, T94Y, Y96V
notes: IgG format
- binding result [1]: binds
- binding result [2]: binds
- binding result (human MAdCAM protein): binds
- binding result [3]: binds

B3: MAdCAM Antibody Table 2 clone 74 (antibody, V domains shown)
VH: QVQLVQSGAEVKKPGASVKVSCKASGYTFTGYYMHWVRQAPGQGLEWMGIINPSGGNTKYAQKFQGRVTMTRDTSTSTVYMELSSLRSEDTAVYYCTTADYYYYMDVWGKGTTVTVSS
VL: DIQMTQSPSSLSASVGDRVTITCRASQGISNYLAWYQQKPGKAPKLLIYAASSLQSGVPSRFSGSGSGTDFTLTISSLQPEDFATYYCQQYYSNADFGQGTKVEIK
notes: IgG format
- binding result [1]: binds
- binding result [2]: no binding
- binding result (human MAdCAM protein): binds
- binding result [3]: no binding

B4: MAdCAM Antibody Table 2 clone 7 (antibody, V domains shown)
VH: EVQLLESGGGLVQPGGSLRLSCAASGFTFSDYQMSWVRQAPGKGLEWVAIISHADGGFKDYADSVKGRFTISRDNSKNTLYLQMNSLRAEDTAVYYCAKPYSSGWSAVYYFDYWGQGTLVTVSS
VL: DIQMTQSPSSLSASVGDRVTITCRASRGITNDLGWYQQKPGKAPKLLIYAASTLQSGVPSRFSGSGSGTDFTLTISSLQPEDFATYYCQQAYSFPWTFGQGTKVEIK
notes: IgG format
- binding result [1]: binds
- binding result [2]: binds
- binding result [3]: binds

B5: MAdCAM Antibody Table 2 clone 65 (antibody, V domains shown)
VH: QVQLVQSGAEVKKPGASVKVSCKASGYTFTSYDINWVRQAPGQGLEWMGWMNPNSGNTGYAQKFQGRVTMTRDTSTSTVYMELSSLRSEDTAVYYCAKDSDYSNLLWDYWGQGTLVTVSS
VL: B1 VL with N28D, S30T, S31N, S32D, N34G, A50Q, Q55E, T94I, Y96L
notes: IgG format
- binding result [1]: binds
- binding result [2]: no binding
- binding result (human MAdCAM protein): binds
- binding result [3]: no binding

B6: MAdCAM Antibody Table 2 clone 11 (antibody, V domains shown)
VH: EVQLLESGGGLVQPGGSLRLSCAASGFTFSDYYMNWVRQAPGKGLEWVSVIGESGGSTYYADSVKGRFTISRDNSKNTLYLQMNSLRAEDTAVYYCAADPVSRWPKHGGGDYWGQGTLVTVSS
VL: B1 VL with N28G, N34A, S53T, T93S, Y96W
notes: IgG format
- binding result [1]: binds
- binding result [2]: binds
- binding result (human MAdCAM protein): binds
- binding result [3]: binds

More lines, now with the values ahead:

- binding result [1]: binds
- binding result [2]: no binding
- binding result (human MAdCAM protein): binds
- binding result [3]: no binding
B7: MAdCAM Antibody Table 2 clone 22 (antibody, V domains shown)
VH: EVQLLESGGGLVQPGGSLRLSCAASGFTFDDYAMHWVRQAPGKGLEWVSGISWNSGSIGYADSVKGRFTISRDNSKNTLYLQMNSLRAEDTAVYYCAKDIVAAGHYYYGMDVWGQGTTVTVSS
VL: DIQMTQSPSSLSASVGDRVTITCQASQDISNYLNWYQQKPGKAPKLLIYDASNLETGVPSRFSGSGSGTDFTLTISSLQPEDFATYYCQQSYSTPLTFGGGTKVEIK
notes: IgG format

- binding result [1]: binds
- binding result [2]: no binding
- binding result (human MAdCAM protein): binds
- binding result [3]: no binding
B8: MAdCAM Antibody Table 2 clone 23 (antibody, V domains shown)
VH: EVQLLESGGGLVQPGGSLRLSCAASGFTFDDYAMHWVRQAPGKGLEWVSYIDTSSSHLYYADSVKGRFTISRDNSKNTLYLQMNSLRAEDTAVYYCARDEAAAGYYGMDVWGQGTTVTVSS
VL: B7 VL with S26G, S91T, L96I, G100Q, V104L
notes: IgG format

- binding result [1]: binds
- binding result [2]: binds
- binding result (human MAdCAM protein): binds
- binding result [3]: binds
B9: MAdCAM Antibody Table 2 clone 79 (antibody, V domains shown)
VH: EVQLLESGGGLVKPGGSLRLSCAASGFTFDDYAMHWVRQAPGKGLEWVASITSSSAFIDYAASVKGRFTISRDDSKNTLYLQMNSLKTEDTAVYYCARERVDWNSYFDLWGRGTLVTVSS
VL: EIVMTQSPATLSVSPGERATLSCRASQGISNSYLAWYQQKPGQAPRLLIYGASTRATGIPARFSGSGSGTEFTLTISSLQSEDFAVYYCQQYYTYPPTFGPGTKVDIK
notes: IgG format

- binding result [1]: binds
- binding result [2]: no binding
- binding result (human MAdCAM protein): binds
- binding result [3]: no binding
B10: MAdCAM Antibody Table 2 clone 20 (antibody, V domains shown)
VH: EVQLLESGGGLVQPGGSLRLSCAASGFTFSDSAMHWVRQAPGKGLEWVSAISGSGSTIYYADSVKGRFTISRDNSKNTLYLQMNSLRAEDTAVYYCVSDIAVAGHWYFDLWGRGTLVTVSS
VL: DIQMTQSPSSLSASVGDRVTITCRASQSISTFLNWYQQKPGKAPKLLIYAASRLEGGVPSRFSGSGSGTDFTLTISSLQPEDFATYYCQQANSFPLTFGPGTKVDIK
notes: IgG format

- binding result [1]: binds
- binding result [2]: no binding
- binding result [3]: no binding
B11: MAdCAM Antibody Table 2 clone 24 (antibody, V domains shown)
VH: EVQLVESGGGLVKPGGSLRLSCAASGFTFSSYWMSWVRQAPGKGLEWVSRISSDGRITTYAAPVKGRFTISRDDSKNTLYLQMNSLKTEDTAVYYCARGTSYCTGGVCDIDYWGQGTLVTVSS
VL: B10 VL with S30G, T31R, F32N, A50S, R53N, E55Q, G56S, A91S, N92Y, F94I
notes: IgG format

- binding result [1]: binds
- binding result [2]: no binding
- binding result (human MAdCAM protein): binds
- binding result [3]: no binding
B12: MAdCAM Antibody Table 2 clone 46 (antibody, V domains shown)
VH: EVQLLESGGGLVQPGGSLRLSCAASGFSFSSYTMNWVRQAPGKGLEWVSFITSSSRTIYYADSVKGRFTISRDNSKNTLYLQMNSLRAEDTAVYYCARDRRGDYGDSWYFDLWGRGTLVTVSS
VL: EIVMTQSPATLSVSPGERATLSCRASQSVRNYLAWYQQKPGQAPRLLIYGASTRATGIPARFSGSGSGTEFTLTISSLQSEDFAVYYCQQYGSSPLTFGGGTKVEIK
notes: IgG format

- binding result [1]: binds
- binding result [2]: no binding
- binding result (human MAdCAM protein): binds
- binding result [3]: no binding
B13: MAdCAM Antibody Table 2 clone 17 (antibody, V domains shown)
VH: QVQLVQSGAEVKKPGSSVKVSCKASGYTFTDYHIHWVRQAPGQGLEWMGGIVPRSGSTTYAQKFQGRVTITADESTSTAYMELSSLRSEDTAVYYCAKDESSGWYYFDYWGQGTLVTVSS
VL: DIVMTQSPLSLPVTPGEPASISCRSSQSLLHSNGYNYLDWYLQKPGQSPQLLIYSAYNRASGVPDRFSGSGSGTDFTLKISRVEAEDVGVYYCMQALQTPLTFGQGTKVEIK
notes: IgG format
